Where no end group is shown, it is not given here. Side-chain parts run from the residue outwards. [ ]: non-standard residue; d: D form. SMPH = maleimide crosslinker coupling C-terminal Cys to BSA; pGlu = O=C1CC[C@@H](C(=O)O)N1
How the values were obtained:
[1] = molecular target: T1, PepSpot peptide No. 5 EFRHDSGYEVHHQ; assay: PepSpot peptide membrane
T1 construct: Spotted on a PepSpot membrane; also called spot number 5
T1 peptide: EFRHDSGYEVHHQ

[2] = molecular target: T2, PepSpot peptide No. 6 pEFRHDSGYEVHHQ; assay: PepSpot peptide membrane
T2 construct: Spotted on a PepSpot membrane; also called spot number 6; the specific Aβ N3pE-x spot
T2 peptide: [pGlu]FRHDSGYEVHHQ

[3] = molecular target: T3, PepSpot peptide No. 7 FRHDSGYEVHHQK; assay: PepSpot peptide membrane
T3 construct: Spotted on a PepSpot membrane; also called spot number 7
T3 peptide: FRHDSGYEVHHQK

isoDAE-BSA = assay: IgG ELISA, hybridoma supernatant on peptide-BSA coat
[4] = molecular target: T4, BSA-pGlu-6166 peptide (pGlu-FRHDSGC conjugated to bovine serum albumin); assay: as above
T4 construct: also called N3pE-BSA
T4 peptide: [pGlu]FRHDSGC([SMPH-BSA])

N11pE-BSA = assay: as above
N3E-BSA = assay: as above
N11E-BSA = assay: as above
Aβ N3pE-40 peptide = molecular target: T5, Aβ N3pE-40 peptide (N-terminal Glu (position 3 of Aβ) cyclized to pyroglutamate); assay: SPR (Biacore, CM5 chip with coupled Aβ N3pE-40), overlay of hybridoma supernatants. The sheet carries the label Figure 6, but its content is that of the legend of FIG. 5
T5 construct: Synthetic peptide; also called AβpE3-40; amyloid β N3pE-40

B1: Aβ 5-5-6 (monoclonal antibody of hybridoma cell line 5-5-6, DSM ACC 2923) (antibody, V domains shown)
VH: EVQLQQSGPELVKPGASMKISCKASGYSFTGYTMNWVKQSHGKNLEWIGLINPYSGVTRYNQKFKGKATLIVDKSSSTAYMELLSLTSEDSAVYYCTREAKREWDETYWGQGTLVTVSA
VL: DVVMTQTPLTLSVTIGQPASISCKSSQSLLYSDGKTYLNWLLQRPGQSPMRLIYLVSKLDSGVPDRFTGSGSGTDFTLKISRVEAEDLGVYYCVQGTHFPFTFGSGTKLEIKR
notes: Mouse hybridoma IgG; The entries as printed begin with a leader and end with the first residues of the constant region; Heavy chain amplified with primer MHCG1, light chain with MKC; Tested as hybridoma culture supernatant; also called clone 5-5-6; antibody 5-5-6
B1: binds [1]; binds [2]; binds [3]. For the same binder, the “signal in ELISA (OD)” value (isoDAE-BSA) was 0.015 OD 405 nm, the “signal in ELISA (OD)” value [4] was 1.65 OD 405 nm and the “signal in ELISA (OD)” value (N11pE-BSA) was 0.006 OD 405 nm. For the same binder, the “signal in ELISA (OD)” value (N3E-BSA) was 0.126 OD 405 nm, the “signal in ELISA (OD)” value (N11E-BSA) was 0.004 OD 405 nm and the binding result (Aβ N3pE-40 peptide) was “binds”.

B2: Aβ 17-4-3 (monoclonal antibody of hybridoma cell line 17-4-3, DSM ACC 2925) (antibody, V domains shown)
VH: EVKLVESGGGLVQPGGSRKLSCAASGFTFSDYGMAWVRQAPGKGPEWVAFISNLAYSIYYADTVTGRFTISRENAKNTLYLEMSSLRSEDTAMYYCARYDYDNILDYVMDYWGQGTSVTVSS
VL: DVVMTQTPLSLPVSLGDQASISCRSSQSLVHSDGNTYLHWYLQKPGQSPKLLIYKVSNRFSGVPDRFSGSGSGTDFTLKISRVEAEDLGVYFCSQSTHVPPTFGGGTKLEIKR
notes: Mouse hybridoma IgG; The entries as printed begin with a leader and end with the first residues of the constant region; Heavy chain amplified with primer MHCG2b, light chain with MKC; Tested as hybridoma culture supernatant; also called clone 17-4-3; antibody 17-4-3
B2: binds [1]; binds [2]; binds [3]. For the same binder, the “signal in ELISA (OD)” value (isoDAE-BSA) was 0.007 OD 405 nm, the “signal in ELISA (OD)” value [4] was 1.92 OD 405 nm and the “signal in ELISA (OD)” value (N11pE-BSA) was 0.004 OD 405 nm. For the same binder, the “signal in ELISA (OD)” value (N3E-BSA) was 0.32 OD 405 nm, the “signal in ELISA (OD)” value (N11E-BSA) was 0.003 OD 405 nm and the binding result (Aβ N3pE-40 peptide) was “binds”.
